Test results taken from US20160046725A1.

Assays:
[1] = molecular target: human Axl receptor on human tumor cells (UniProt P30530); experiment: cell-based or functional assay
[2] = molecular target: human Axl receptor on human tumor cells (UniProt P30530); experiment: flow cytometry on SN12C cells treated 24 h with 9G4, labelled with 9G4 isotype control
[3] = molecular target: human Axl receptor on human tumor cells (UniProt P30530); experiment: flow cytometry on SN12C cells, untreated (No Ab), labelled with 9G4 isotype control
[4] = molecular target: human Axl receptor on human tumor cells (UniProt P30530); experiment: flow cytometry on SN12C cells, untreated (No Ab), labelled with MAB154
[5] = molecular target: human Axl receptor on human tumor cells (UniProt P30530); experiment: quantitative flow cytometry (Qifikit) on MDA-MB-231 cells
[6] = molecular target: human Axl receptor on human tumor cells (UniProt P30530); experiment: quantitative flow cytometry (Qifikit) on NCI-H125 cells
[7] = molecular target: human Axl receptor on human tumor cells (UniProt P30530); experiment: quantitative flow cytometry (Qifikit) on Calu-1 cells
[8] = molecular target: human Axl receptor on human tumor cells (UniProt P30530); experiment: quantitative flow cytometry (Qifikit) on A172 cells
[9] = molecular target: human Axl receptor on human tumor cells (UniProt P30530); experiment: quantitative flow cytometry (Qifikit) on A431 cells
[10] = molecular target: human Axl receptor on human tumor cells (UniProt P30530); experiment: quantitative flow cytometry (Qifikit) on PC3 cells
[11] = molecular target: human Axl receptor on human tumor cells (UniProt P30530); experiment: quantitative flow cytometry (Qifikit) on MDA-MB-435S cells
[12] = molecular target: human Axl receptor on human tumor cells (UniProt P30530); experiment: quantitative flow cytometry (Qifikit) on NCI-H226 cells
[13] = molecular target: human Axl receptor on human tumor cells (UniProt P30530); experiment: quantitative flow cytometry (Qifikit) on SN12C cells
[14] = molecular target: human Axl receptor on human tumor cells (UniProt P30530); experiment: quantitative flow cytometry (Qifikit) on DU-145 cells
[15] = molecular target: human Axl receptor on human tumor cells (UniProt P30530); experiment: quantitative flow cytometry (Qifikit) on MCF7 cells
[16] = molecular target: human Axl receptor on human tumor cells (UniProt P30530); experiment: quantitative flow cytometry (Qifikit) on Panc1 cells

Chain of human Axl receptor on human tumor cells (P30530 26-894 D266N): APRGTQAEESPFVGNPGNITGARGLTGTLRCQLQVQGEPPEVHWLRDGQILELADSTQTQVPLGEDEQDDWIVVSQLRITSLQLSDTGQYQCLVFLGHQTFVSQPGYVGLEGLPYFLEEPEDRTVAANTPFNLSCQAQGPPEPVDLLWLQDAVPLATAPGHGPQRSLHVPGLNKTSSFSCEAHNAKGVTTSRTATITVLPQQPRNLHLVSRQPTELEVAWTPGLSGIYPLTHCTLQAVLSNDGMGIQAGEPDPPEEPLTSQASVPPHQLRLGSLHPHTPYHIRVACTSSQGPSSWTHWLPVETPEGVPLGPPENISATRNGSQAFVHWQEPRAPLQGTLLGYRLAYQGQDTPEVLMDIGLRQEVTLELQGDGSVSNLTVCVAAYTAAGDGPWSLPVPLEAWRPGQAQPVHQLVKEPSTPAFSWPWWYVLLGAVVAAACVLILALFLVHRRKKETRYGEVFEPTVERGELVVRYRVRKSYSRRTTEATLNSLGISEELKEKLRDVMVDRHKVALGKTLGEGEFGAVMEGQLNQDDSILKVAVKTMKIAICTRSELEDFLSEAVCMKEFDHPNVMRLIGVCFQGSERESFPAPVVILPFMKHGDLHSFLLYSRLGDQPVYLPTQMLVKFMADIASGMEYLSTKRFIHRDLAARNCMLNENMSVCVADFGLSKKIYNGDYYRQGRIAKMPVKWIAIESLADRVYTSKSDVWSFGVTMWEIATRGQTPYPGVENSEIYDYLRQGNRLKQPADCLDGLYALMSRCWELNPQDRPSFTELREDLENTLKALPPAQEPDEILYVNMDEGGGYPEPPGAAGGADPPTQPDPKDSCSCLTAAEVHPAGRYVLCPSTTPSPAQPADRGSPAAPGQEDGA

Substance	% remaining Axl [1] [%]	Δ (MFI No Ab 24 h - MFI Ab 24 h) [1] [MFI]	MFI at T24 h [2] [MFI]	MFI at T24 h [3] [MFI]	MFI at T24 h [4] [MFI]	ABC (Qifikit) [5] [ABC]	ABC (Qifikit) [6] [ABC]	ABC (Qifikit) [7] [ABC]	ABC (Qifikit) [8] [ABC]	ABC (Qifikit) [9] [ABC]	ABC (Qifikit) [10] [ABC]	ABC (Qifikit) [11] [ABC]	ABC (Qifikit) [12] [ABC]	ABC (Qifikit) [13] [ABC]	Antigen binding capacity (Qifikit) [13] [ABC]	ABC (Qifikit) [14] [ABC]	ABC (Qifikit) [15] [ABC]	ABC (Qifikit) [16] [ABC]
9G4 murine IgG1 isotype control antibody	117	-2	13	11	–	–	–	–	–	–	–	–	–	–	–	–	–	–
MAB154 anti-Axl commercial antibody (R and D Systems)	–	–	–	–	950	61200	5540	> 100000	52400	3950	8420	17800	32100	> 100000	> 100000	55300	71	36800
